Assay [1] has as its target HLA-DR1 (HLA-DRA*0101, HLA-DRB1*0101) (human). Kind of assay: ELISA. Background: In an ELISA, binding on a coated surface is turned into a signal by an enzyme label.
Assay [2] shares this target. Kind of assay: ELISA. The source holds these as a separate data set.

Where two headings read alike, the source gives them in different places.

Regarding “SARS-CoV-2 Spike peptide S486-505 (Omicron BA.1)”, the IC50 (commonly the concentration at which inhibition is half-maximal) in assay [1] worked out at 0.754 µM.
On the same count and under the same terms, the same measure for “SARS-CoV-2 Spike peptide S761-775 (Omicron BA.1)”: 6.78 µM.
On to “SARS-CoV-2 Spike peptide S761-775 (Wuhan HU-1)”, for which the IC50 in assay [2] is > 10 µM.

These data come from paper PMC10840515.
